Columns and labels:
[1] = target: human CD123 (human, UniProt P26951 19-378); test: cell-based or functional assay
[2] = target: T1, recombinant human CD123 protein (R&D Systems, 301-R3/CF) (human, UniProt P26951 19-305); test: SPR (ProteOn XPR36), CD123 immobilized
T1 construct: Bought recombinant His-tagged extracellular domain of human CD123; also called recombinant CD123; in house biotinylated-CD123 recombinant protein; not shown: His tag of the bought protein
T1 sequence: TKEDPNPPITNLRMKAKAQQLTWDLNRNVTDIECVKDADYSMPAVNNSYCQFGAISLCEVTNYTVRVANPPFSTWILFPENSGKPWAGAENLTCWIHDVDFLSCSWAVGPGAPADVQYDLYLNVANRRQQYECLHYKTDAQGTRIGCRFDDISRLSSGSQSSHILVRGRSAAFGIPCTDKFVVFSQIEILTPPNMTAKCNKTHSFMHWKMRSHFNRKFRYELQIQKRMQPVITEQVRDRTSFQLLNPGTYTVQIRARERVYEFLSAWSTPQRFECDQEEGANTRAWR

[3] = target: T1, recombinant human CD123 protein (R&D …); test: SPR (ProteOn XPR36), CD123 immobilized; values only indicative (incomplete regeneration)
[4] = target: T2, human CD123 expressed on cells (human, UniProt P26951 19-378); test: flow cytometry competition, CHO Flp-In huCD123 cells, competitor A0110056A10-Alexa647 (0.9 nM)
T2 construct: the cell line is named under assay; also called huCD123; IL-3Rα

[5] = target: T3, cynomolgus CD123 expressed on HEK Flp-In cells (cynomolgus); test: flow cytometry competition, HEK Flp-In cyCD123 cells, competitor A0110056A10-Alexa647 (0.9 nM)
T3 construct: EHH61867.1; also called cyCD123; cyno CD123
T3 chain: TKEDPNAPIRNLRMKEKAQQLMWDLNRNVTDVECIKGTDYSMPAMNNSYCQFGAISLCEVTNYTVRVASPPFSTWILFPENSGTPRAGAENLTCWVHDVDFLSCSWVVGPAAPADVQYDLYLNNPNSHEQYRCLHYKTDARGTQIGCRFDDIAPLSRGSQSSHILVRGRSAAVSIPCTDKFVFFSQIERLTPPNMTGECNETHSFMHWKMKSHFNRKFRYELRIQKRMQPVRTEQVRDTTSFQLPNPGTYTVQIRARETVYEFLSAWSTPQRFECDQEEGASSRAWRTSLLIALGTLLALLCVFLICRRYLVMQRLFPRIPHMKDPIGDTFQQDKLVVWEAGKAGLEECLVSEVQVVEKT

[6] = target: T2, human CD123 expressed on cells; test: flow cytometry competition, MOLM-13 cells, competitor A0110056A10-Alexa647 (0.4 nM)
[7] = target: T2, human CD123 expressed on cells; test: cell-based or functional assay
[8] = target: T2, human CD123 expressed on cells; test: cell-based or functional assay; remark: listed apart in the source
[9] = target: T2, human CD123 expressed on cells; test: cell-based or functional assay; remark: listed apart in the source
[10] = target: T2, human CD123 expressed on cells; test: cell-based or functional assay; remark: listed apart in the source
[11] = target: cynomolgus TCR/CD3 expressed on cells (cynomolgus); test: cell-based or functional assay
[12] = target: T2, human CD123 expressed on cells; test: cell-based or functional assay; remark: listed apart in the source

B1: T017000128 (bispecific antibody)
chain: DVQLVESGGGLVQPGGSLRLSCVASGDVHKINFLGWYRQAPGKEREKVAHISIGDQTDYADSAKGRFTISRDESKNMVYLQMNSLKPEDTAVYFCRAFSRIYPYDYWGQGTLVTVSSGGGGSGGGGSGGGGSGGGGSGGGGSGGGGSGGGGSEVQLVESGGGLVQAGGSLRLSCAASGITSKINDMGWYRQTPGNYREWVASITATGTTNYRDSVKGRFTISRDNAKSTVYLQMNSLKPEDTTVYYCNTFPPISNFWGQGTLVTVSSA
[1]
  % lysis, redirected cynomolgus T cell mediated killing of KG1a cells, flow cytometry, E:T 10:1: 32%
  % lysis, redirected human T cell mediated killing of KG1a cells, flow cytometry, E:T 10:1: 55%
  EC50 (M), redirected cynomolgus T cell mediated killing of KG1a cells, flow cytometry, E:T 10:1: 2.8e-10 M
  EC50 (M), redirected human T cell mediated killing of KG1a cells, flow cytometry, E:T 10:1: 3.1e-10 M

B2: T017000113 (bispecific antibody)
chain: EVQLVESGGGLVQAGGPLRLSCAASGRTFSSYVMGWFRQAPGKEREFVAAIYWSNGKTQYTDSVKGRFTISGDNAKNTVYLQMNSLNPEDTAVYYCVADKDETGFRTLPIAYDYWGQGTLVTVSSGGGGSGGGGSGGGGSGGGGSGGGGSGGGGSGGGGSEVQLVESGGGSVQAGGSLRLSCAASGYTIGPYCMGWFRQAPGKEREGVAAINMGGGITYYADSVKGRFTISQDNAKNTVYLLMNSLEPEDTAIYYCAADSTIYASYYECGHGLSTGGYGYDSWGQGTLVTVSSGGGGSGGGGSGGGGSGGGGSGGGGSGGGGSGGGGSEVQLVESGGGLVQPGGSLRLSCVASGDVHKINFLGWYRQAPGKEREKVAHISIGDQTDYADSAKGRFTISRDESKNMVYLQMNSLKPEDTAVYFCRAFSRIYPYDYWGQGTLVTVSS
notes: Multispecific Nanobody polypeptide expressed in Pichia; also called A0110055F03-35GS-cAbLys3(D1E,Q5V,A6E,Q108L)-35GS-T0170056G05-FLAG3-HIS6; not shown: C-terminal FLAG3-HIS6 tag
[2]
  Kd: 160 nM
  koff: 0.0032 s⁻¹
  kon: 20000 M⁻¹ s⁻¹

B3: T017000115 (bispecific antibody)
chain: EVQLVESGGGLVQAGGSLRLSCAASGITSKINDMGWYRQTPGNYREWVASITATGTTNYRDSVKGRFTISRDNAKSTVYLQMNSLKPEDTTVYYCNTFPPISNFWGQGTLVTVSSGGGGSGGGGSGGGGSGGGGSGGGGSGGGGSGGGGSEVQLVESGGGSVQAGGSLRLSCAASGYTIGPYCMGWFRQAPGKEREGVAAINMGGGITYYADSVKGRFTISQDNAKNTVYLLMNSLEPEDTAIYYCAADSTIYASYYECGHGLSTGGYGYDSWGQGTLVTVSSGGGGSGGGGSGGGGSGGGGSGGGGSGGGGSGGGGSEVQLVESGGGLVQPGGSLRLSCVASGDVHKINFLGWYRQAPGKEREKVAHISIGDQTDYADSAKGRFTISRDESKNMVYLQMNSLKPEDTAVYFCRAFSRIYPYDYWGQGTLVTVSS
notes: Multispecific Nanobody polypeptide expressed in Pichia; also called A0110056A10-35GS-cAbLys3(D1E,Q5V,A6E,Q108L)-35GS-T0170056G05-FLAG3-HIS6; not shown: C-terminal FLAG3-HIS6 tag
[3]
  Kd: 1.5 nM
  koff: 0.00051 s⁻¹
  kon: 330000 M⁻¹ s⁻¹

B4: T017000121 (bispecific antibody)
chain: EVQLVESGGGSVQAGGSLRLSCAASGYTIGPYCMGWFRQAPGKEREGVAAINMGGGITYYADSVKGRFTISQDNAKNTVYLLMNSLEPEDTAIYYCAADSTIYASYYECGHGLSTGGYGYDSWGQGTLVTVSSGGGGSGGGGSGGGGSGGGGSGGGGSGGGGSGGGGSEVQLVESGGGLVQAGGSLRLSCAASGITSKINDMGWYRQTPGNYREWVASITATGTTNYRDSVKGRFTISRDNAKSTVYLQMNSLKPEDTTVYYCNTFPPISNFWGQGTLVTVSSGGGGSGGGGSGGGGSGGGGSGGGGSGGGGSGGGGSEVQLVESGGGLVQPGGSLRLSCVASGDVHKINFLGWYRQAPGKEREKVAHISIGDQTDYADSAKGRFTISRDESKNMVYLQMNSLKPEDTAVYFCRAFSRIYPYDYWGQGTLVTVSS
notes: Multispecific Nanobody polypeptide expressed in Pichia; also called cAbLys3(D1E,Q5V,A6E,Q108L)-35GS-A0110056A10-35GS-T0170056G05-FLAG3-HIS6; not shown: C-terminal FLAG3-HIS6 tag
[4]
  IC50: 23 nM
[2]
  Kd: 22 nM
  koff: 0.00086 s⁻¹
  kon: 40000 M⁻¹ s⁻¹
[5]
  IC50: 110 nM
[6]
  IC50: 26 nM

B5: T017000135 (bispecific antibody)
chain: DVQLVESGGGLVQAGGPLRLSCAASGRTFSSYVMGWFRQAPGKEREFVAAIYWSNGKTQYTDSVKGRFTISGDNAKNTVYLQMNSLNPEDTAVYYCVADKDETGFRTLPIAYDYWGQGTLVTVSSGGGGSGGGGSGGGGSGGGGSGGGGSGGGGSGGGGSEVQLVESGGGLVQPGGSLRLSCVASGDVHKINFLGWYRQAPGKEREKVAHISIGDQTDYADSAKGRFTISRDESKNMVYLQMNSLKPEDTAVYFCRAFSRIYPYDYWGQGTLVTVSSGGGGSGGGGSGGGGSGGGGSGGGGSGGGGSGGGGSEVQLVESGGGLVQAGGSLRLSCAASGITSKINDMGWYRQTPGNYREWVASITATGTTNYRDSVKGRFTISRDNAKSTVYLQMNSLKPEDTTVYYCNTFPPISNFWGQGTLVTVSSA
[7]
  % lysis, redirected human T cell mediated killing of MOLM-13 cells, flow cytometry, E:T 10:1: 33%
  EC50 (M), redirected human T cell mediated killing of MOLM-13 cells, flow cytometry, E:T 10:1: 1.1e-11 M
[8]
  EC50 (M), IFN-γ secretion by human T cells during killing of CD123 transfected adherent target cells: 2e-09 M
[9]
  EC50 (M), human IL-6 secretion during human T cell mediated killing of CD123 transfected adherent target cells: 5.9e-10 M
[10]
  % lysis, redirected human T cell mediated killing of KG1a cells, flow cytometry, E:T 10:1: 18%
  EC50 (M), redirected human T cell mediated killing of KG1a cells, flow cytometry, E:T 10:1: 5.1e-11 M

B6: T017000134 (bispecific antibody)
chain: VQLVESGGGLVQAGGSLRLSCAASGITSKINDMGWYRQTPGNYREWVASITATGTTNYRDSVKGRFTISRDNAKSTVYLQMNSLKPEDTTVYYCNTFPPISNFWGQGTLVTVSSGGGGSGGGGSGGGGSGGGGSGGGGSGGGGSGGGGSEVQLVESGGGLVQPGGSLRLSCVASGDVHKINFLGWYRQAPGKEREKVAHISIGDQTDYADSAKGRFTISRDESKNMVYLQMNSLKPEDTAVYFCRAFSRIYPYDYWGQGTLVTVSSGGGGSGGGGSGGGGSGGGGSGGGGSGGGGSGGGGSEVQLVESGGGLVQAGGPLRLSCAASGRTFSSYVMGWFRQAPGKEREFVAAIYWSNGKTQYTDSVKGRFTISGDNAKNTVYLQMNSLNPEDTAVYYCVADKDETGFRTLPIAYDYWGQGTLVTVSSA
[7]
  % lysis, redirected human T cell mediated killing of MOLM-13 cells, flow cytometry, E:T 10:1: 9%
  EC50 (M), redirected human T cell mediated killing of MOLM-13 cells, flow cytometry, E:T 10:1: 3e-10 M

B7: T017000120 (bispecific antibody)
chain: EVQLVESGGGSVQAGGSLRLSCAASGYTIGPYCMGWFRQAPGKEREGVAAINMGGGITYYADSVKGRFTISQDNAKNTVYLLMNSLEPEDTAIYYCAADSTIYASYYECGHGLSTGGYGYDSWGQGTLVTVSSGGGGSGGGGSGGGGSGGGGSGGGGSGGGGSGGGGSEVQLVESGGGLVQAGGPLRLSCAASGRTFSSYVMGWFRQAPGKEREFVAAIYWSNGKTQYTDSVKGRFTISGDNAKNTVYLQMNSLNPEDTAVYYCVADKDETGFRTLPIAYDYWGQGTLVTVSSGGGGSGGGGSGGGGSGGGGSGGGGSGGGGSGGGGSEVQLVESGGGLVQPGGSLRLSCVASGDVHKINFLGWYRQAPGKEREKVAHISIGDQTDYADSAKGRFTISRDESKNMVYLQMNSLKPEDTAVYFCRAFSRIYPYDYWGQGTLVTVSS
notes: Multispecific Nanobody polypeptide expressed in Pichia; also called cAbLys3(D1E,Q5V,A6E,Q108L)-35GS-A0110055F03-35GS-T0170056G05-FLAG3-HIS6; not shown: C-terminal FLAG3-HIS6 tag
[3]
  Kd: 170 nM
  koff: 0.0025 s⁻¹
  kon: 15000 M⁻¹ s⁻¹

B8: T017000114 (bispecific antibody)
chain: EVQLVESGGGLVQAGGPLRLSCAASGRTFSSYVMGWFRQAPGKEREFVAAIYWSNGKTQYTDSVKGRFTISGDNAKNTVYLQMNSLNPEDTAVYYCVADKDETGFRTLPIAYDYWGQGTLVTVSSGGGGSGGGGSGGGGSGGGGSGGGGSGGGGSGGGGSEVQLVESGGGLVQAGGSLRLSCAASGITSKINDMGWYRQTPGNYREWVASITATGTTNYRDSVKGRFTISRDNAKSTVYLQMNSLKPEDTTVYYCNTFPPISNFWGQGTLVTVSSGGGGSGGGGSGGGGSGGGGSGGGGSGGGGSGGGGSEVQLVESGGGLVQPGGSLRLSCVASGDVHKINFLGWYRQAPGKEREKVAHISIGDQTDYADSAKGRFTISRDESKNMVYLQMNSLKPEDTAVYFCRAFSRIYPYDYWGQGTLVTVSS
notes: Multispecific Nanobody polypeptide expressed in Pichia; also called A0110055F03-35GS-A0110056A10-35GS-T0170056G05-FLAG3-HIS6; not shown: C-terminal FLAG3-HIS6 tag
[11]
  % lysis, redirected cyno T cell mediated killing of KG1a cells, flow cytometry: 7%
  EC50 (M), redirected cyno T cell mediated killing of KG1a cells, flow cytometry: 1.9e-10 M
[12]
  % lysis, killing of MOLM-13 cells by non-activated human T cells, E:T ratio 2:1: 10%
  % lysis, killing of MOLM-13 cells by non-activated human T cells, E:T ratio 8:1: 12%
  % lysis, killing of MOLM-13 cells by pre-activated human T cells, E:T ratio 1:2: 18%
  % lysis, killing of MOLM-13 cells by pre-activated human T cells, E:T ratio 2:1: 31%
  % lysis, killing of MOLM-13 cells by pre-activated human T cells, E:T ratio 8:1: 43%
  EC50 (M), killing of MOLM-13 cells by non-activated human T cells, E:T ratio 2:1: 1.9e-09 M
  EC50 (M), killing of MOLM-13 cells by non-activated human T cells, E:T ratio 8:1: 1.4e-09 M
  EC50 (M), killing of MOLM-13 cells by pre-activated human T cells, E:T ratio 1:2: 1e-09 M
  EC50 (M), killing of MOLM-13 cells by pre-activated human T cells, E:T ratio 2:1: 6.8e-10 M
  EC50 (M), killing of MOLM-13 cells by pre-activated human T cells, E:T ratio 8:1: 2.4e-10 M
[2]
  Kd: 2.3 nM
  koff: 0.00019 s⁻¹
  kon: 84000 M⁻¹ s⁻¹
[10]
  % lysis, redirected human T cell mediated killing of KG1a cells, flow cytometry, E:T 10:1: 7%
  EC50 (M), redirected human T cell mediated killing of KG1a cells, flow cytometry, E:T 10:1: 2.4e-10 M
